# Reference: patent publication US10428308B2, “Mesoderm and definitive endoderm cell populations” (Icahn School of Medicine at Mount Sinai, priority 2005, dated 2019)
# B1: BMP4: growth factor purchased from R&D systems (protein, UniProt P12644 293-408, looked up)
# Bone morphogenetic protein 4: SPKHHSQRARKKNKNCRRHSLYVDFSDVGWNDWIVAPPGYQAFYCHGDCPFPLADHLNSTNHAIVQTLVNSVNSSIPKACCVPTELSAISMLYLDEYDKVVLKNYQEMVVEGCGCR
# B2: Wnt3a: recombinant Wnt3a (protein, UniProt P56704 19-352, looked up)
# Protein Wnt-3a: SYPIWWSLAVGPQYSSLGSQPILCASIPGLVPKQLRFCRNYVEIMPSVAEGIKIGIQECQHQFRGRRWNCTTVHDSLAIFGPVLDKATRESAFVHAIASAGVAFAVTRSCAEGTAAICGCSSRHQGSPGKGWKWGGCSEDIEFGGMVSREFADARENRPDARSAMNRHNNEAGRQAIASHMHLKCKCHGLSGSCEVKTCWWSQPDFRAIGDFLKDKYDSASEMVVEKHRESRGWVETLRPRYTYFKVPTERDLVYYEASPNFCEPNPETGSFGTRDRTCNVSSHGIDGCDLLCCGRGHNARAERRREKCRCVFHWCCYVSCQECTRVYDVHTCK
# B3: DKK1: Wnt signaling inhibitor binding the Wnt co-receptors LRP5 and LRP6 (protein, UniProt O94907 32-266, looked up)
# Dickkopf-related protein 1: TLNSVLNSNAIKNLPPPLGGAAGHPGSAVSAAPGILYPGGNKYQTIDNYQPYPCAEDEECGTDEYCASPTRGGDAGVQICLACRKRRKRCMRHAMCCPGNYCKNGICVSSDQNHFRGEIEETITESFGNDHSTLDGYSRRTTLSSKMYHTKGQEGSVCLRSSDCASGLCCARHFWSKICKPVLKEGQVCTKHRRKGSHGLEIFQRCYCGEGLSCRIQKDHHQASNSSRLHTCQRH
# Experiments:
# ALK4, 5, and 7 = conditions: Inman et al. (2002); cited from earlier work
# CD4-HNF/GFP-T ES cells = assay: Activin A / Wnt3a induction of ES derived primitive streak like cells in serum free culture, with pathway inhibitors; type: cell-based, mouse; conditions: for development of GFP^+ CD4^+ cells with either inducer (activin or Wnt): DKK1 100 ng/ml or SB-431542 6 uM
# Description: FIGS. 34A, 34B and 34C depict ES cells differentiated in serum free conditions with Activin A Wnt3a and/or inhibitors of these pathways. ES cells were cultured in serum free media for two days then trypsinized to obtain a single cell population. These cells were then reaggregated with the indicated conditions. At day six, the EBs were plated on matrigel coated dishes in serum free media.
# Liu et. al. (1999) Nat. Genet. 22: 361-4. […] Activin stimulation leads to high levels of CD4 expression that persist after loss of GFP-Bry expression at day 6. […] Wnt does however stimulate expression of the posterior primitive streak markers HoxBI and Tbx6, while activin only induces Tbx6. […] At day 6, EBs that were stimulated with either activin or Wnt3a were plated on matrigel in serum free media to allow further development.
# Considering that Wnt stimulation induces nodal and activin treatment induces Wnt3 (FIG. 34B), it is unknown whether activin/nodal signaling or Wnt Signaling alone can induce primitive streak formation or whether both factors are required together. CD4-HNF/GFP-T ES cells were induced with either activin or Wnt in conjunction with specific inhibitors of these pathways. DKK1 was used to inhibit Wnt signaling while the small molecule inhibitor SB-431542 (SB) was used to block Nodal/TGFβ signaling. DKK1 functions by binding the Wnt co-receptors, LRP5 and LRP6, which are essential for activation of the βcatenin signaling pathway. […] Inman et. al. (2002) MoI. Pharmacol. 62: 65-74. […] Therefore, to induce mesoderm and endoderm germ layers and their derivative tissues, both activin/Nodal and Wnt signals are required initially.
# EBs (brachyury^+ cells) = assay: BMP4 added to developing EBs in serum free cultures, GFP/Flk-1 expression; type: cell-based, mouse; conditions: BMP4 20 ng/ml
# Description: FIG. 8B depicts expression of brachyury and Flk-1 on cell populations generated from GFP+/Flk-1^− cells cultured for 20 hours under the indicated conditions.
# To assess the role of serum in the development of brachyury^+ cells, EBs were differentiated the absence of serum. EBs did develop under these conditions, although they were somewhat smaller than those found in normal conditions. […] Significant numbers of GFP^+/Flk-1^− and GFP^+/Flk-1^+ cells did develop when serum was added to the cultures. […] As a first step in identifying factors that might play a role in this process, BMP4 (20 ng/ml) was added to the developing EBs in the serum free cultures. […] To determine if BMP4 could induce GFP^+/Flk-1^+ from GFP^+/Flk-1^− cells that were induced in the presence of serum, GFP^+/Flk-1^− cells were isolated from EBs differentiated for three days in the presence of serum. These cells were reaggregated in medium alone, in medium with serum or in medium with BMP4. […] As expected, the same population generated a large GFP^+/Flk-1^+ population when serum was added to the cultures. Consistent with the findings in the primary differentiation cultures, BMP4 was unable to induce the development of significant numbers of GFP^+/Flk-1^+ cells from the cultured GFP^+/Flk-1^− cells.
# [1] = system: GFP^+ hCD4^med cells from CD4-HNF/GFP-T ES cells; assay: Reaggregation of sorted GFP^+ hCD4^med cells in serum free media with DKK1 and/or activin; type: cell-based, mouse
# Description: FIGS. 35A and 35B depict, the effects of DKK1 and activin on EB differentiation. EBs differentiated and sorted as in FIG. 32 for GFP^+ hCD4^med were allowed to reaggregate in serum replacement containing media alone or with the addition of human DKK1 100 ng/ml, activin 100 ng/ml, or both factors together. […] FIG. 35B depicts endodermal gene expression by RT PCR. The sorted populations were treated as indicated above for 2 days, then plated on matrigel in serum free media without factors added. Gene expression was analyzed an additional 5 days after plating.
# Nodal, a key molecule involved in mesoderm/endoderm induction in vivo, signals through the same receptors as activin. It is also known that Nodal as well as inhibitors for Wnt signaling are expressed preferentially in or around the anterior primitive streak. Considering that the endoderm forms from the anterior primitive streak, it is possible that nodal/activin signaling in combination with inhibition of Wnt signals induces endoderm formation. To test this hypothesis, CD4-HNF/GFP-T ES cells were differentiated for 3.25 days in serum and GFP^+ hCD4^med cells were sorted and reaggregated in serum free media with no factor, DKK1 (Wnt inhibitor), activin, or activin and DKK1. The effect of these culture conditions on hCD4-HNF3β and GFP-Bry levels were analyzed by flow cytometry (FIG. 35A). With serum free media alone, hCD4 expression was lost after 1 day reaggregation. […] To further test this idea, sorted cells reaggregated for two days in the culture conditions above were washed with serum free media without factors and plated onto martrigel in serum free media. After 5 days, the cultures were harvested and gene expression determined by RT PCR. […] These culture conditions have the potential to allow the large scale production of endodermal derived tissues such as the pancreas and liver.
molecule,measurement,setting,value
NC(=O)c1ccc(-c2nc(-c3ccc4c(c3)OCO4)c(-c3ccccn3)[nH]2)cc1 [SB-431542],effect on BMP signaling,"ALK4, 5, and 7","does not, however, block BMP signaling"
same,receptor specificity,"ALK4, 5, and 7","specific inhibitor of the receptors ALK4, 5, and 7"
same,development of GFP^+ CD4^+ cells with either inducer (activin or Wnt),CD4-HNF/GFP-T ES cells,completely blocked
B1,development of GFP^+/Flk-1^+ population,EBs (brachyury^+ cells); serum free primary differentiation cultures,did not support the development of the GFP^+/Flk-1^+ population
same,induction of brachyury^+ cells,"EBs (brachyury^+ cells); serum free, within 3 days of differentiation",induce a significant population of brachyury^+ cells
B2,"endodermal gene expression (Alb, Aat, HNF4, Pdxl) by RT-PCR","CD4-HNF/GFP-T ES cells; day 6 EBs plated on matrigel a further 6 days, serum free",did not express any of these markers
same,induction of GFP^+ CD4^+ cells,"CD4-HNF/GFP-T ES cells; serum free, Activin A 25 ng/ml or Wnt3a 100 ng/ml",initially induce GFP^+ CD4^+ cells
B3,"endoderm gene expression by RT PCR (pancreas, liver, intestine genes)","[1]; 2 days treatment, then 5 days on matrigel without factors",None of these genes were detected
same,hCD4 (HNF3β) level by flow cytometry,"[1]; after 1 day reaggregation, DKK1 100 ng/ml, activin 100 ng/ml",allowed some cells to retain low levels of hCD4
same,development of GFP^+ CD4^+ cells with either inducer (activin or Wnt),CD4-HNF/GFP-T ES cells,completely blocked
